Laboratory results reported in patent US20070207154A1, “METHOD OF MODULATING VASCULARIZATION” (priority 2004, published 2007).

Test system: sprouting from wild-type, TFΔCT and PAR-2-deficient aortas
Test: ex vivo angiogenesis assay (aortic ring sprouting in Matrigel)
Format: cell-based, mouse
Conditions: wild-type and TFΔCT aortas, EGM without serum, day 4; growth factors 20 ng/ml, VIIa 50 nM (FIG. 2c)
Description: Angiogenesis assays. The ex vivo angiogenesis assay was adopted from the rat aortic sprouting model described by Masson et al. Biol. Proced. […] Thoracic aortas from 8-11 week old wild-type, TFΔCT, PAR-2-deficient, and TFΔCT/PAR-2-deficient mice of either sex were embedded in Matrigel, and overlaid with EGM supplemented with 5% serum, growth factors, or inhibitors at the following concentrations: VEGF, bFGF, and PDGF: 20 ng/ml; hirudin: 500 nM, VIIai: […], NAPc2: […], NAP5: 1 μM, VIIa: 50 nM. In most cases, the number of aortic sprouts was determined at day 3 and 4 without knowledge of the genotype. Aortic ring RNA was isolated by Trizol (Invitrogen) extraction using standard procedures, digested with DNAaseI, followed by RT-PCR for β-actin and TF. […] Tests used 2 different virus doses, referred to as high (1.1×10^10 virus particles/ml) and low (5×10^9 particles/ml). For confocal fluorescence microscopy, aortic pieces with a minimum of surrounding Matrigel were fixed with 4% paraformaldehyde and methanol, incubated with primary and secondary antibodies (24 hours each), and mounted in anti-fade medium (Vector laboratories). Alternatively, cryosections of OCT-embedded aortas were fixed with acetone and stained as described above.

B1: PDGF-BB: platelet-derived growth factor BB, activates PDGF receptor β (protein, UniProt P01127 82-190, looked up)
Platelet-derived growth …: SLGSLTIAEPAMIAECKTRTEVFEISRRLIDRTNANFLVWPPCVEVQRCSGCCNNRNVQCRPTQVQLRPVQVRKIEIVRKKPIFKKATVTLEDHLACKCETVAAARPVT
modifications: BB homodimer
sprouting induced by single factor replacing serum: None of these factors promoted substantial sprouting
